Measured values from US20250326862A1, “Antibody or Fragment Thereof Binding Specifically to Mertk, and Anti-Tumor Agent” (Chiome Bioscience Inc., priority 2021, published 2025).
Positions count from the first letter of the chain named. “Also recorded” adds a separate entry of the source. One block for each molecule: values may come before it.

Legend:
[1] = molecular target: T1, binding of MerTK with TULP1 (Homo sapiens, UniProt Q12866); assay: Test 6: ligand binding inhibition ELISA, MerTK with TULP1; details: human MerTK 5 μg/ml immobilized; biotinylated TULP1 40 nM; FIGS. 14 and 16
T1 construct: purchased R&D Systems
T1 sequence (Q12866 26-499 limits assumed): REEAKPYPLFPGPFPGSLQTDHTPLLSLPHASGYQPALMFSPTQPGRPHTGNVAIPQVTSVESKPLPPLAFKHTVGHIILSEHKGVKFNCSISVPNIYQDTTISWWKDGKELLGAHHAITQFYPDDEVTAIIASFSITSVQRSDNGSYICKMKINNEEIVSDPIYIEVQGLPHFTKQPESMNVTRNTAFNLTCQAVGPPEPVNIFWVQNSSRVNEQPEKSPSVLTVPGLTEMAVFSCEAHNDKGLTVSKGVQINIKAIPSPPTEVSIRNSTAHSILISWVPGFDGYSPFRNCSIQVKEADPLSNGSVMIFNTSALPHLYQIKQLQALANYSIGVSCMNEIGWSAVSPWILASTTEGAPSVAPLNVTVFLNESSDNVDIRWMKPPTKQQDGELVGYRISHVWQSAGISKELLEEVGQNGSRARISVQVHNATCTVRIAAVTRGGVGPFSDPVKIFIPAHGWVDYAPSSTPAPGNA
Experimental: (§1) “20A77” and “24A1” were evaluated for the ability to inhibit binding of MerTK with various ligands. The MerTK ligands used were human Gas6 (R&D Systems) and human TULP1 (abcam plc.) which were respectively biotinylated using “Biotin Labeling Kit-NH” (Dojindo Laboratories Co., Ltd.). […] TULP1 is a ligand correlated with ocular toxicity, and an antibody having an activity to inhibit binding of MerTK with TULP1 may have ocular toxicity. Thus, an antibody having high inhibitory activity of binding to Gas6 and low inhibitory activity of binding to TULP1 may be an efficacious anti-tumor agent having low ocular toxicity.
(§2) The ligand binding inhibition test was carried out as indicated below. First, human MerTK (R&D Systems) was added to an ELISA plate (Nunc) at a concentration of 5 μg/ml and immobilized overnight at room temperature. After removing the immobilization solution, 1% BSA/PBS was added for blocking reaction and left to stand at room temperature for 1 hour. After the blocking, the plate was washed with 0.05% Tween 20/PBS and an antibody solution was added for primary reaction at room temperature for 1 hour. […] After washing, a chromogenic substrate solution of TMB (Dako) was added for chromogenic reaction for 20 minutes, 1 N sulfuric acid was added to terminate the reaction and the absorbance was measured at 450 nm.

[2] = molecular target: T2, binding of MerTK with Gas6 (Homo sapiens, UniProt Q12866); assay: Test 6: ligand binding inhibition ELISA, MerTK with Gas6; details: human MerTK 5 μg/ml immobilized; biotinylated Gas6 10 nM; FIGS. 13 and 15
T2 construct: purchased R&D Systems
T2 sequence (Q12866 26-499 limits assumed): T1 sequence (Q12866 26-499 limits assumed)
Experimental: as §1, §2

[3] = molecular target: T3, human MerTK on cells (EL4 cells stably expressing human MerTK); human melanoma cell line G361 intrinsically … (human, UniProt Q12866 21-999); assay: inferred from inhibition of Gas6-induced MerTK phosphorylation on hMerTK-EL4 cells
T3 construct: whole, on cells; also called hMerTK-EL4
T3 sequence (looked up): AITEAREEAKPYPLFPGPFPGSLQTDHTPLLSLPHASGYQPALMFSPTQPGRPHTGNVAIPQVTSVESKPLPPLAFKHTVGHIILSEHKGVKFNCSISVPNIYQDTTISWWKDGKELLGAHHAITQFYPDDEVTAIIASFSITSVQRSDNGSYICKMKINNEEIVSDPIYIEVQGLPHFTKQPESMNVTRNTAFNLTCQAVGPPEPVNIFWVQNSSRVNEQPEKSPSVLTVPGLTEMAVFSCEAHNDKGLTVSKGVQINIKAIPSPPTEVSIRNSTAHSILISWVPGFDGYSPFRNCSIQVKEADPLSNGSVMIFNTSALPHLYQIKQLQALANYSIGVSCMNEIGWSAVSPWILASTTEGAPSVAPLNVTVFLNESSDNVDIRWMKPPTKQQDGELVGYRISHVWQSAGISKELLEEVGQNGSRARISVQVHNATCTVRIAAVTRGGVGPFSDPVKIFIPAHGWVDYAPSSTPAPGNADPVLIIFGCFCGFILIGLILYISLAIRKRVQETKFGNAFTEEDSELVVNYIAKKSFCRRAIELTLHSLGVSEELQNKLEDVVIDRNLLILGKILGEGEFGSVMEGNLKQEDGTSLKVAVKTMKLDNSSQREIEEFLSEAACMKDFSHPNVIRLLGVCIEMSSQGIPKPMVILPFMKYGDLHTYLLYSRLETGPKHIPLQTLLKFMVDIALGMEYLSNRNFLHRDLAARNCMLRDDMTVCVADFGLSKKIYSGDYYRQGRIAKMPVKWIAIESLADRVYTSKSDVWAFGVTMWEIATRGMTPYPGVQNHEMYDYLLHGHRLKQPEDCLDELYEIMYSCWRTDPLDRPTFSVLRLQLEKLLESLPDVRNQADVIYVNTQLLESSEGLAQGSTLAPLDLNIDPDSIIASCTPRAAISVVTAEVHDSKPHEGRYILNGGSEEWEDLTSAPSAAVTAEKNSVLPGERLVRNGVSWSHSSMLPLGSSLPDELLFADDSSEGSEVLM
Experimental: The cells (hMerTK-EL4) stably expressing human MerTK were cultured in a “DMEM high glucose medium” (Thermo Fisher Scientific Inc.) containing 10% FBS. After the cultivation, the cells were washed in PBS, suspended in a serum-free medium, plated in a 96-well plate at 1×10⁶ cells/well and incubated at 37° C. for 3 hours. After the incubation, the respective clones were added, the hMerTK-EL4 was allowed to react for 1 hour, stimulated with 200 nM human Gas6 (R&D Systems) for 10 minutes and centrifuged and collected. The collected hMerTK-EL4 was lysed in a cell lysis solution, and the level of the phosphorylated MerTK protein in the lysate was determined using “Human Phospho-Mer DuoSet IC ELISA” (R&D Systems). The cell lysis solution used contained 1% “IGEPAL CA-630” (SIGMA) and 1×concentration of “Halt Protease and Phosphatase Inhibitor Single-Use Inhibitor Cocktail” (Thermo Fisher Scientific Inc.) added to MilliQ water.
Among these 14 clones, “20A77” and “24A1” were selected as clones showing particularly high inhibitory activity and subjected to the following tests.

human MerTK = molecular target: T4, human MerTK (Homo sapiens, UniProt Q12866); assay: MerTK phosphorylation inhibition test in hMerTK-EL4 cells stimulated with human Gas6; format: cell-based; design: expressed in transfected cells; host or cells: mouse lymphoma cell line EL4 (hMerTK-EL4); details: hMerTK-EL4, antibody 1 hour, then 200 nM human Gas6 for 10 minutes; phospho-Mer ELISA; FIG. 1
T4 sequence (Q12866 21-999): T3 sequence (looked up)
Experimental: On the basis of the procedures indicated below, the clones were evaluated for MerTK phosphorylation inhibitory activity. Higher activity means higher binding ability to MerTK.
The cells (hMerTK-EL4) stably expressing human MerTK were cultured in a “DMEM high glucose medium” (Thermo Fisher Scientific Inc.) containing 10% FBS. After the cultivation, the cells were washed in PBS, suspended in a serum-free medium, plated in a 96-well plate at 1×10^6 cells/well and incubated at 37° C. for 3 hours. After the incubation, the respective clones were added, the hMerTK-EL4 was allowed to react for 1 hour, stimulated with 200 nM human Gas6 (R&D Systems) for 10 minutes and centrifuged and collected. The collected hMerTK-EL4 was lysed in a cell lysis solution, and the level of the phosphorylated MerTK protein in the lysate was determined using “Human Phospho-Mer DuoSet IC ELISA” (R&D Systems). The cell lysis solution used contained 1% “IGEPAL CA-630” (SIGMA) and 1×concentration of “Halt Protease and Phosphatase Inhibitor Single-Use Inhibitor Cocktail” (Thermo Fisher Scientific Inc.) added to MilliQ water.

rat MerTKECD-hFc = molecular target: T5, rat MerTKECD-hFc (rat, UniProt P57097 19-497); assay: ELISA, antigen immobilised at 5 ug/ml, HRP-labelled secondary antibody
T5 construct: extracellular domain; Prepared in the same manner as hMerTKECD-mFc and mMerTKECD-mFc; not shown: human Fc
T5 sequence (looked up): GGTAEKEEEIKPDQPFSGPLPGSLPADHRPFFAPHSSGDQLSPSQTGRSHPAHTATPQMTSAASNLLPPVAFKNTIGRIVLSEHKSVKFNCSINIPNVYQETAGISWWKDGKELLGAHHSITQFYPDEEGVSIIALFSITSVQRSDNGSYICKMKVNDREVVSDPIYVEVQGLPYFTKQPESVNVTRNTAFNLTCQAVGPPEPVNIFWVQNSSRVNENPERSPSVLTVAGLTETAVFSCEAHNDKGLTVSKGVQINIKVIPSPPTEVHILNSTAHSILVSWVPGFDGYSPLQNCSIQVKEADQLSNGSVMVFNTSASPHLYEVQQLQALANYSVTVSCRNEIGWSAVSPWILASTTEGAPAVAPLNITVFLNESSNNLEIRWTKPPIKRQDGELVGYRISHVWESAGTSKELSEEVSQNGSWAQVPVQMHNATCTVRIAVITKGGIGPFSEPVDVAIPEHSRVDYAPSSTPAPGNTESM
Experimental: (§3) The ELISA was performed according to the procedures indicated below. First, the respective antigens were added to an ELISA plate (Nunc) at a concentration of 5 μg/ml and immobilized overnight at room temperature. After removing the immobilization solution, 1% BSA/PBS was added for blocking reaction and left to stand at room temperature for 1 hour. After the blocking, the plate was washed with 0.05% Tween 20/PBS and an antibody solution was added for primary reaction at room temperature for 1 hour. After washing, an HRP-labelled antibody (GE Healthcare) was added for secondary reaction for 1 hour. After washing, a chromogenic substrate solution of TMB (Dako) was added for chromogenic reaction for 10 minutes, 1 N sulfuric acid was added to terminate the reaction and the absorbance was measured at 450 nm.

[4] = molecular target: T6, Recombinant Mouse Mer Fc Chimera Protein (R&D systems) (mouse, UniProt Q60805 23-496, limits assumed); assay: as above
T6 construct: Bought reagent; also called mouse MerTK antigen; human Fc fusion protein of mouse MerTK; not shown: human Fc
T6 sequence (looked up): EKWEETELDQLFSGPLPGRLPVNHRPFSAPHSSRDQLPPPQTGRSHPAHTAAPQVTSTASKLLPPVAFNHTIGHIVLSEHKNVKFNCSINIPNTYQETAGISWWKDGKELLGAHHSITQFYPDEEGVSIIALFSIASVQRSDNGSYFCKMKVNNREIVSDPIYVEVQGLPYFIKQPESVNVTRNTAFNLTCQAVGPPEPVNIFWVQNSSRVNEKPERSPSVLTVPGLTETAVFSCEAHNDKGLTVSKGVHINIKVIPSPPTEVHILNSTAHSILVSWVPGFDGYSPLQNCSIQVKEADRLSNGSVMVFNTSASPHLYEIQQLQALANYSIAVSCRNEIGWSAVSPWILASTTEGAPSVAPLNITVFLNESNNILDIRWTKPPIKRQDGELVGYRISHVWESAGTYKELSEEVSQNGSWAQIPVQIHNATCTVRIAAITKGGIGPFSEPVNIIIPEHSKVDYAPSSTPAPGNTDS
Experimental: as §3

[5] = molecular target: T7, Recombinant Human Mer Fc Chimera Protein (R&D systems) (human, UniProt Q12866 26-499, limits assumed); assay: as above
T7 construct: Bought reagent; also called human MerTK antigen; human Fc fusion protein of human MerTK; not shown: human Fc
T7 sequence (looked up): T1 sequence (Q12866 26-499 limits assumed)
Experimental: as §3

binding result [3]: binds
B1: 20A77 (antibody, V domains shown)
VH: QVQLQQPGTELVKPGASVKLSCRASGNTFTSYWMHWVKQRPGQGLEWIGNINPSNGGTNYNEKFKSKATLTVDKSSSTAYMQLSSLTSEDSAVYYCARLNYYGFDGFAFWGQGTLVTVSA
VL: DIKMTQSPSSMYASLGERVTITCKASQDINSYLSWFQQKPGKSPKTLIYRANRLVDGVPSRFSGSGSGQDYSLTISSLEYEDMGIYYCLQYDEFPFTFGSGTKLEIK
notes: Mouse monoclonal antibody from a hybridoma clone (MerTK knockout mice); In Test 2 (1) the hybridoma clone was added
inhibition of binding of TULP1 with MerTK [1]: did not inhibit binding of TULP1 with MerTK
inhibition of binding of Gas6 with MerTK [2]: inhibited binding of Gas6 with MerTK; also recorded: strongly inhibited binding of Gas6 with MerTK
MerTK phosphorylation inhibitory activity (human MerTK): inhibited binding of Gas6 with MerTK and MerTK phosphorylation in a concentration dependent manner

binding result (rat MerTKECD-hFc): binds
binding result [4]: binds
binding result [5]: binds
B2: m20A77_mIgG1 (antibody, V domains shown)
VH: B1 VH with N55S
VL: B1 VL with D56S
notes: CDR-modified variant of 20A77, made recombinantly with mouse IgG1 heavy chain and kappa light chain constant regions
